According to patent US20150342993A1, “COMPOSITIONS AND METHODS FOR IMMUNOTHERAPY” (MEMORIAL SLOAN-KETTERING CANCER CENTER, published 2015):

Biological target: prostate-specific membrane antigen (Homo sapiens (Human), UniProt Q04609)
Assay: cell-based or functional assay

long-term T cell proliferation (absolute T cell counts over 31 days, no exogenous cytokine): 58 fold expansion
B1: P28BB (CAR)
chain: EVQLQQSGPELVKPGTSVRISCKTSGYTFTEYTIHWVKQSHGKSLEWIGNINPNNGGTTYNQKFEDKATLTVDKSSSTAYMELRSLTSEDSAVYYCAAGWNFDYWGQGTTVTVSSGGGGSGGGGSGGGGSDIVMTQSHKFMSTSVGDRVSIICKASQDVGTAVDWYQQKPGQSPKLLIYWASTRHTGVPDRFTGSGSGTDFTLTITNVQSEDLADYFCQQYNSYPLTFGAGTMLDLKRAAAIEVMYPPPYLDNEKSNGTIIHVKGKHLCPSPLFPGPSKPFWVLVVVGGVLACYSLLVTVAFIIFWVRSKRSRLLHSDYMNMTPRRPGPTRKHYQPYAPPRDFAAYRSRFSVVKRGRKKLLYIFKQPFMRPVQTTQEEDGCSCRFPEEEEGGCE
